The source of these data is patent US20240409663A1 (CONCEPT TO MEDICINE BIOTECH, published 2024).

The target of experiment [1] is T1, human GPC3 on cells (human, UniProt P51654 25-554).
T1 construct: whole, on cells; over-expressed on CHOK1 cells or endogenous on HEPG2, Hep3B and Huh-7 hepatocellular carcinoma cells; the cell line is named under assay; also called GPC3-CHOK1 cells; human GPC3 over-expressed CHOK1 cells
Kind of experiment: FACS, GPC3-CHOK1 cells. The method, then:
Cell-based binding: FACS was used to evaluate the binding activity of chimeric mAbs (18C1D9, 52H5D3B8, 163E7D12, 172B4E9, 152E9F7 and 171F9C5) with comparison to a known GPC3 antibody GC33 (Chugai Pharmaceutical) on human GPC3 over-expressed CHOK1 cells.
Briefly, GPC3-CHOK1 cells were washed by FACS buffer and divided to each well with 3-fold serially diluted chimeric mAbs or GC33 mAb starting at 5 μg/mL at 4° C. for 40 mins. […] Samples were washed twice with FACS buffer.

Experiment [2] deals with T1, human GPC3 on cells. Kind of experiment: FACS, HEPG2 cells. Here is the method:
(§1) To evaluate the antigen binding property, the humanized antibodies were analyzed for their binding to human GPC3 over-expressed CHOK1 cells, HEPG2 cells, Hep3B cells and Huh-7 cells by FACS. Briefly, GPC3-CHOK1 cells, HEPG2 cells, Hep3B cells and Huh-7 cells were firstly incubated with Fc blocking reagent at 4° C. for 15 mins. Cells were washed by FACS buffer and divided to each well with 4-fold serially diluted humanized antibodies starting at 10 μg/mL at 4° C. for 60 mins. Cells were washed by FACS buffer and fixed with 2% PFA at RT for 15 mins. […] The 16 humanized antibodies were separated into two plates.

Experiment [3] concerns the target T1, human GPC3 on cells. As to the kind of experiment: FACS, Hep3B cells. Here is the method:
as §1

Experiment [4] deals with T1, human GPC3 on cells. Kind of experiment: FACS, Huh-7 cells. Here is the method: as §1
Experiment [5] addresses T1, human GPC3 on cells. Kind of experiment: FACS, GPC3-CHOK1 cells. Here is the method: as §1
The source holds these as a separate data set.

Experiment [6] concerns the target T2, human GPC3-his tag protein (human, UniProt P51654 25-559, limits assumed).
T2 construct: recombinant soluble antigen used as analyte in all Biacore runs; also called recombinant GPC3 protein; rhGPC3-His; not shown: His tag
Kind of experiment: SPR Biacore 8K, mAb captured, affinity ranking. The method, then:
To evaluate antigen binding activity, the chimeric antibody's affinity was measured by Biacore 8K. A serial dilution of human GPC3-his tag protein was injected over captured chimeric antibody 52H5D3B8-6 #-VH+VL for 3 mins at a flow rate of 30 μl/min. The antigen was allowed to dissociate for 720 s. Among the multi detection doses, two concentrations with most close affinity to the chimeric antibody's affinity were chosen for the 16 humanized antibodies' affinity detection.

In experiment [7] the target is T2, human GPC3-his tag protein. Kind of experiment: SPR Biacore, mAb captured on CM5, GPC3-his dilution series (full kinetics). Here is the method: The binding of the humanized antibodies to recombinant GPC3 protein (human GPC3-his tag) was tested by Biacore using a capture method. 52H5D3B8-6 #-V+VL, 52H5D3B8-6 #-VH1+VL1, 52H5D3B8-6 #-VH1+VL3, 52H5D3B8-6 #-V1+VL4, 52H5D3B8-6 #-VH2+VL4, 52H5D3B8-6 #-VH3+VL1, 52H5D3B8-6 #-VH3+VL3 mAbs were captured using CM5 sensor chip. A serial dilution of human GPC3-his tag protein was injected over captured antibody for 2 mins at a flow rate of […]. The antigen was allowed to dissociate for 360 s. All the experiments were carried out on a Biacore T200.

B1: 18C1D9 chimeric mAb (antibody, V domains shown)
VH: QVQLQQSGAELVRPGASVTLSCKASGYTFSDYEMHWVKQTPVHGLEWIGAIDPETGGTAYNQKFKGKATLTADKSSSTAYMELRSLTSEDSAVYYCTRYYSYAYWGQGTLVTVSA
VL: DVVMTQSPLSLPVSLGDQASISCRSRQSLVHSNGNTYLQWYLQKPGQSPKLLIYKVSNRFSGVPDRFSGSGSGTDFTLKISRVEAEDLGVYFCFQSIHVPYTFGGGTKLEKK
As to B1, the EC50 in the experiment with human GPC3 on cells [1] amounted to 0.238 mg/L.

B2: 171F9C5 chimeric mAb (antibody, V domains shown)
VH: QVQLQQSGAELVRPGASVTLSCKASGYTFTDYEIHWVKQTPVHGLEWIGAIDPETDNTAYSQKFKGKAILTADKSSSTAYMELRSLTSEDSAVYYCTRYYSYAYWGQGTLVTVSA
VL: DVVMTQTPLSLPVSLGDQASISCRSSQSPVHRNGNTYLHWYLQKPGQSPKLLIFKVSNRFSGVPDRFSGSGSGTDFTLKISRVAAEDLGVYFCSQTTHVPYTFGGGTKLEIK
In the experiment with human GPC3 on cells [1], B2 showed a concentration for a half-maximal effect (EC50) of 0.142 mg/L. Compared with the last molecule, the EC50 is about 1.7-fold lower.

B3: 163E7D12 chimeric mAb (antibody, V domains shown)
VH: QVQLQQSGAELVRPGASVTLSCKASGYTFTDYEMHWVKQTPVHGLEWIGAIGPETGSTAYNQRFKGKAIVTADKSSSTAYMELRSLTSEDSAVYYCTRYYSFAYWGQGTLVTVSA
VL: DVVMTQTPLSLPVSLGGQASISCRSSQSLVHSNGNTYLQWYLQKPGQSPKLLIFKVSNRFSGVPDRFSGSGSGTDFTLKISRVEAEDLGVYFCFQSIHVPYTFGGGTKLEIK
For the molecule B3, in the experiment with human GPC3 on cells [1], the EC50 is 0.17 mg/L.

B4: 52H5D3B8-6#-VH3+VL3 (antibody, V domains shown)
VH: QVQLVQSGAEVKKPGASVKVSCKALGYTFTDYEMHWVKQAPGQGLEWIGAIHPGSGGTAYNQKFKGRVTLTADTSTSTVYMELSSLRSEDTAVYYCTRYYSYAYWGQGTLVTVSS
VL: DIVMTQTPLSLSVTPGQPASISCRSSQSLVHSNGNTYLQWYLQKPGQSPKLLIYKVSNRFSGVPDRFSGSGSGTDFTLKISRVEAEDVGVYYCFQSIHVPYTFGGGTKLEIK
notes: humanized
For B4, the EC50 was 0.0426 mg/L with human GPC3 on cells [2], 0.0682 mg/L in the experiment with human GPC3 on cells [3], 0.0351 mg/L in the experiment with human GPC3 on cells [4] and 0.0408 mg/L with human GPC3 on cells [5]. For the same molecule, the Kd in experiment [6] is 0.721 nM; in experiment [7], 0.898 nM. The values for the dissociation rate constant (koff) in experiment [6] and in experiment [7] were 0.000514 s⁻¹ and 0.000538 s⁻¹, respectively. The association rate constant (kon) in experiment [6] came out at 714000 M⁻¹ s⁻¹; in experiment [7] it was 600000 M⁻¹ s⁻¹.

B5: 52H5D3B8-6#-VH4+VL3 (antibody, V domains shown)
VH: QVQLVQSGAEVKKPGASVKVSCKALGYTFTDYEMHWVKQAPGQGLEWIGAIHPGSGGTAYNQKFKGRATMTADKFTSTVYMELSSLRSEDTAVYYCTRYYSYAYWGQGTLVTVSS
VL: DIVMTQTPLSLSVTPGQPASISCRSSQSLVHSNGNTYLQWYLQKPGQSPKLLIYKVSNRFSGVPDRFSGSGSGTDFTLKISRVEAEDVGVYYCFQSIHVPYTFGGGTKLEIK
notes: humanized
Consider B5, for which the EC50 came out at 0.0391 mg/L with human GPC3 on cells [2], 0.0511 mg/L with human GPC3 on cells [3], 0.0287 mg/L with human GPC3 on cells [4] and 0.0379 mg/L with human GPC3 on cells [5]. The molecule also had a Kd in experiment [6] of 0.847 nM. The koff in experiment [6] is 0.000601 s⁻¹. The kon in experiment [6] was found to be 709000 M⁻¹ s⁻¹.

B6: 52H5D3B8-6#-VH4+VL1 (antibody, V domains shown)
VH: QVQLVQSGAEVKKPGASVKVSCKALGYTFTDYEMHWVKQAPGQGLEWIGAIHPGSGGTAYNQKFKGRATMTADKFTSTVYMELSSLRSEDTAVYYCTRYYSYAYWGQGTLVTVSS
VL: DIVMTQTPLSLSVTPGQPASISCRSSQSLVHSNGNTYLQWYLQKPGQSPQLLIYKVSNRFSGVPDRFSGSGSGTDFTLKISRVEAEDVGVYYCFQSIHVPYTFGGGTKLEIK
notes: humanized
As for B6, the EC50 with human GPC3 on cells [2] is 0.04 mg/L; with human GPC3 on cells [3] it was 0.0565 mg/L; with human GPC3 on cells [4] it was 0.0306 mg/L; with human GPC3 on cells [5], 0.0387 mg/L. This molecule also returned a dissociation constant (Kd) in experiment [6] of 1.01 nM. Also, the koff in experiment [6] came to 0.000646 s⁻¹. The molecule further came in with an on-rate (kon) in experiment [6] of 643000 M⁻¹ s⁻¹.

B7: 52H5D3B8-6#-VH4+VL4 (antibody, V domains shown)
VH: QVQLVQSGAEVKKPGASVKVSCKALGYTFTDYEMHWVKQAPGQGLEWIGAIHPGSGGTAYNQKFKGRATMTADKFTSTVYMELSSLRSEDTAVYYCTRYYSYAYWGQGTLVTVSS
VL: DIVMTQTPLSLSVTPGQPASISCRSSQSLVHSNGNTYLQWYLQKPGQSPKLLIYKVSNRFSGVPDRFSGSGSGTDFTLKISRVEAEDVGVYFCFQSIHVPYTFGGGTKLEIK
notes: humanized
B7: the concentration giving a half-maximal response (EC50) with human GPC3 on cells [2] is 0.0367 mg/L; in the experiment with human GPC3 on cells [3], 0.047 mg/L; with human GPC3 on cells [4], 0.0259 mg/L; with human GPC3 on cells [5], 0.0367 mg/L. The molecule further came in with a dissociation constant Kd in experiment [6] of 0.857 nM. The molecule also displayed an off-rate (koff) in experiment [6] of 0.000593 s⁻¹. The molecule further had a kon in experiment [6] of 692000 M⁻¹ s⁻¹.

B8: 52H5D3B8-6#-VH3+VL4 (antibody, V domains shown)
VH: QVQLVQSGAEVKKPGASVKVSCKALGYTFTDYEMHWVKQAPGQGLEWIGAIHPGSGGTAYNQKFKGRVTLTADTSTSTVYMELSSLRSEDTAVYYCTRYYSYAYWGQGTLVTVSS
VL: DIVMTQTPLSLSVTPGQPASISCRSSQSLVHSNGNTYLQWYLQKPGQSPKLLIYKVSNRFSGVPDRFSGSGSGTDFTLKISRVEAEDVGVYFCFQSIHVPYTFGGGTKLEIK
notes: humanized
Consider B8, for which the EC50 in the experiment with human GPC3 on cells [2] was determined as 0.0422 mg/L; with human GPC3 on cells [3] it was 0.0629 mg/L; with human GPC3 on cells [4], 0.0322 mg/L; in the experiment with human GPC3 on cells [5], 0.0419 mg/L. Moreover, the Kd in experiment [6] was 0.725 nM. This molecule also yielded a koff in experiment [6] of 0.000516 s⁻¹. Further, the kon in experiment [6] came out at 711000 M⁻¹ s⁻¹.

B9: 52H5D3B8-6#-VH4+VL2 (antibody, V domains shown)
VH: QVQLVQSGAEVKKPGASVKVSCKALGYTFTDYEMHWVKQAPGQGLEWIGAIHPGSGGTAYNQKFKGRATMTADKFTSTVYMELSSLRSEDTAVYYCTRYYSYAYWGQGTLVTVSS
VL: DIVMTQTPLSLSVTPGQPASISCRSSQSLVHSNGNTYLQWYLQKPGQSPQLLIYKVSNRFSGVPDRFSGSGSGTDFTLKISRVEAEDVGVYFCFQSIHVPYTFGGGTKLEIK
notes: humanized
For the molecule B9, the concentration giving a half-maximal response (EC50) came out at 0.0435 mg/L in the experiment with human GPC3 on cells [2], 0.0627 mg/L in the experiment with human GPC3 on cells [3], 0.0326 mg/L with human GPC3 on cells [4] and 0.0425 mg/L in the experiment with human GPC3 on cells [5]. This molecule also gave a Kd in experiment [6] of 1.05 nM. This molecule also displayed an off-rate constant (koff) in experiment [6] of 0.000674 s⁻¹. The molecule further showed a kon in experiment [6] of 642000 M⁻¹ s⁻¹.

B10: 172B4E9 chimeric mAb (antibody, V domains shown)
VH: QVQLQQSGAELVRPGASVTLSCKASGYTFTDYEIHWVKQTPVHGLEWIGAIDPATGDTAYTQKFKGKAILTADTSSNTVYMELRGLTSEDSAVHFCTRFYSYAYWGQGTLVTVSA
VL: DVVMTQTPLSLPVSLGDQASISCRSSQSLVHTNGHTYLQWYLQKSGQSPRLLIFKVSNRFSGVPDRFSGSGSGTDFKLKISRVEAEDLGVYFCSQSTHVPYTFGGGTKLEIK
In the experiment with human GPC3 on cells [1], B10 showed an EC50 of 0.269 mg/L.

B11: 152E9F7 chimeric mAb (antibody, V domains shown)
VH: QVQLQQSGAELVRPGASVTLSCKASGYTFTDYEIHWVKQTPVHGLEWIGAIDPETGDTAYTQKFKGKAILTADKSSNTVYMELRSLTSEDSAVYYCTRFYSYAYWGQGTLVTVSA
VL: DVVMTQTPLSLPVSLGDQASISCRSSQSLVHTNGHTYLQWYLQKSGQSPKLLIYKVSNRFSGVPDRFSGSGSGTDFTLKISRVEAEDLGVYFCSQSTHVPYTFGGGTKLEIK
In the case of B11, in the experiment with human GPC3 on cells [1], the midpoint of the response, the EC50, lay at 0.14 mg/L. Compared with the last molecule, the EC50 is about 1.9-fold lower.
